The results in this text go back to US20210102192A1 (TWIST BIOSCIENCE, published 2021).

The target of assay [1] is T1, Prostaglandin D2 receptor 2 (CRTH2R) (human, UniProt Q9Y5Y4 1-395).
T1 sequence: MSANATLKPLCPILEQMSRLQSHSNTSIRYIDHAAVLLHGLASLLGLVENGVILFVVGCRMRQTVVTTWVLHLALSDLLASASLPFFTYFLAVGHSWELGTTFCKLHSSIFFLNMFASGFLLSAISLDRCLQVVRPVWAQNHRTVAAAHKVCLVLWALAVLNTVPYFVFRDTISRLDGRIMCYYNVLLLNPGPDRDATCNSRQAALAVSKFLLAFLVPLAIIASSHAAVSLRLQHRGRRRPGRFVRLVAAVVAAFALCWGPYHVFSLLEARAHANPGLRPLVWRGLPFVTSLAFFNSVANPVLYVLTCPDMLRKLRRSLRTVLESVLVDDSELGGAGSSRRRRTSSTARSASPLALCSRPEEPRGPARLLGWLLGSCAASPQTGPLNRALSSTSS
Put plainly: cell-based or functional assay.

The target in assay [2] is T2, Prostaglandin D2 receptor 2 (CRTH2R) (UniProt Q9Y5Y4 1-395).
T2 chain: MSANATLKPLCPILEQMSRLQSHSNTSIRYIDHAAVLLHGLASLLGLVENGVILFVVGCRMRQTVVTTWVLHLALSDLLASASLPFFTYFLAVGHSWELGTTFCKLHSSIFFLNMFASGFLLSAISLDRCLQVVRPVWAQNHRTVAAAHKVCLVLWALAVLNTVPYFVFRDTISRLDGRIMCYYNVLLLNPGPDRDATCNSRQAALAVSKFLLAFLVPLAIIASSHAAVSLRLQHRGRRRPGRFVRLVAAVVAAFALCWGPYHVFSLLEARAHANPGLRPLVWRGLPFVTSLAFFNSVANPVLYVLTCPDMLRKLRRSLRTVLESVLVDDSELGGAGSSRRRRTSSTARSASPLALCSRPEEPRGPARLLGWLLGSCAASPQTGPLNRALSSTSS
Put plainly: FACS binding; CHO CRTH2R-positive cells. (In flow cytometry, cells or beads pass a laser one at a time.)

In assay [3] the target is T2, Prostaglandin D2 receptor 2 (CRTH2R). Description: FACS binding; CRTH2R-positive cells.

What is called EC50 is the concentration that produces a half-maximal response. A low value points to a more potent agent.

B1: CRTH2-50 (antibody, V domains shown)
VH: QVQLVQSGAEVKKPGSSVKVSCKASGGTFSSYALSWVRKAPGQGLEWMGGTIPIFGTVNYAQKFQGRVTITADESTSTAYMELSSLRSEDTAVYYCARANQHFTRVIGQPSPAVPSRGYIYHGYHYYGMDVWGQGTLVTVSS
VL: QSALTQPASVSGSPGQSITISCTGTSSDIGGYNFVSWYQQHPGKAPKLMIYDVSNRPQGVSNRFSGSKSGNTASLTISGLQAEDEADYYCSSYTSSNTYVVFGGGTKLTVL
Regarding B1, the “IC50 fold difference of the PGD2 dose response curve (cAMP assay, 100 nM IgG)” value in assay [1] was greater than 2 fold. Besides, the midpoint of the response in assay [2], the EC50, lay at 19.6 nM.

B2: CRTH2-41-51 (Fc fusion)
chain: EVQLVESGGGLVQPGGSLRLSCAASGGIFRFNAMGWFRQAPGKERELVAGISGSGGDTYYADSVKGRFTISADNSKNTAYLQMNSLKPEDTAVYYCAAFRGIMRPDWGQGTLVTVSS
Regarding B2, in assay [3], the 50% effective concentration (EC50) was 0.181 nM.
